The record followed here is publication PMC6224477.

The target in test [1] is ribosomes (mono- and poly-ribosomes) of HEK293 cells (human (endogenous in HEK293)).
The target in test [2] is di-ribosome translation complex stalled on a poly(A)-containing transcript in rabbit reticulocyte lysate (rabbit (endogenous in reticulocyte lysate)). As to the kind of experiment: pull-down + co-sedimentation; poly(A)-containing transcript translated in RRL supplemented with FLAG-tagged ZNF598; translation complexes affinity purified via the Twin-Strep tag of the nascent chain (StrepTactin, RNC buffer: 50 mM HEPES pH 7.6, 100 mM KOAc, 5 mM Mg(OAc)2, biotin elution), then sucrose gradient; immunoblot for ZNF598, uL2, eS24. For orientation: A western blot detects proteins with antibodies after separation by electrophoresis.

B1: endogenous ZNF598 (enzyme)
chain: MAAAGGAEGRRAALEAAAAAAPERGGGSCVLCCGDLEATALGRCDHPVCYRCSTKMRVLCEQRYCAVCREELRQVVFGKKLPAFATIPIHQLQHEKKYDIYFADGKVYALYRQLLQHECPRCPELPPFSLFGDLEQHMRRQHELFCCRLCLQHLQIFTYERKWYSRKDLARHRMQGDPDDTSHRGHPLCKFCDERYLDNDELLKHLRRDHYFCHFCDSDGAQDYYSDYAYLREHFREKHFLCEEGRCSTEQFTHAFRTEIDLKAHRTACHSRSRAEARQNRHIDLQFSYAPRHSRRNEGVVGGEDYEEVDRYSRQGRVARAGTRGAQQSRRGSWRYKREEEDREVAAAVRASVAAQQQEEARRSEDQEEGGRPKKEEAAARGPEDPRGPRRSPRTQGEGPGPKETSTNGPVSQEAFSVTGPAAPGCVGVPGALPPPSPKLKDEDFPSLSASTSSSCSTAATPGPVGLALPYAIPARGRSAFQEEDFPALVSSVPKPGTAPTSLVSAWNSSSSSKKVAQPPLSAQATGSGQPTRKAGKGSRGGRKGGPPFTQEEEEDGGPALQELLSTRPTGSVSSTLGLASIQPSKVGKKKKVGSEKPGTTLPQPPPATCPPGALQAPEAPASRAEGPVAVVVNGHTEGPAPARSAPKEPPGLPRPLGSFPCPTPQEDFPALGGPCPPRMPPPPGFSAVVLLKGTPPPPPPGLVPPISKPPPGFSGLLPSPHPACVPSPATTTTTKAPRLLPAPRAYLVPENFRERNLQLIQSIRDFLQSDEARFSEFKSHSGEFRQGLISAAQYYKSCRDLLGENFQKVFNELLVLLPDTAKQQELLSAHTDFCNREKPLSTKSKKNKKSAWQATTQQAGLDCRVCPTCQQVLAHGDASSHQALHAARDDDFPSLQAIARIIT
B1: the ubiquitinated eS10 (immunoblot) in HEK293 cells pre-treated 15 min with low concentrations of anisomycin, emetine or didemnin B in test [1] was found to be 10%.

B2: ZNF598-TEV-3xFlag (human) (enzyme)
chain: B1 chain
Turning to B2, the percent of ZNF598 co-fractionating with ribosomes in test [2] fell in the range of 70 to 80%.
